This is an account of results in paper PMC4063175.

The target in the assay is Src13-GCN4-eGFP/mCherry. The assay is described as follows: PIE-FCCS.

With Src13-GCN4-eGFP/mCherry, the fc (fraction correlated), mean was 0.25 and the fc (fraction correlated), median came out at 0.23.
